The target of assay [1] is substrate B (SpyCatcher-M13-LPETG-SpyTag(DA)), with the original M13 (M13-1). Nature of the assay: kinetics of the covalent SpyTag-SpyCatcher reaction by SDS-PAGE densitometry + LC-MS of the product; A and B mixed 1:1 (10 μM each) with 0.1 equiv of SrtA or C, Tris-HCl buffer, pH 8.0, 10 mM CaCl2, 37 °C.
The target in assay [2] is substrate B with the designed M13 variant M13-2 (SpyCatcher-M13-2-LPETG-SpyTag(DA)). Nature of the assay: ITC; CaM (200 μM) titrated into B or P (18 μM); the paper calls K_a(c) an apparent binding constant. Background: Isothermal titration calorimetry measures the heat released or taken up as one component is titrated into another.
Assay [3] concerns the target substrate B with the designed M13 variant M13-3 (SpyCatcher-M13-3-LPETG-SpyTag(DA)). The assay is described as above.

As to substrate A (GGG-SpyTag-YFP), in assay [1], the k AB(c), second-order rate constant of the covalent SpyTag-SpyCatcher reaction in the catalyzed cascade (with C) amounted to 90 M^–1 s^–1 and the k AB(s), second-order rate constant of the covalent SpyTag-SpyCatcher reaction in the spontaneous cascade (with SrtA) amounted to 67 M^–1 s^–1.
“calmodulin (CaM) (from UniProt P0DP23 1-149) (natural protein)”: the Ka was 20000 M⁻¹ in assay [2] and under 100 M⁻¹ in assay [3].

Source of the values: publication PMC12291137.
